What was measured:
Experiment in all cases: ELISA
ICOSLG = target: T1, ICOSLG (Homo sapiens (Human), UniProt O75144 19-256)
T1 sequence: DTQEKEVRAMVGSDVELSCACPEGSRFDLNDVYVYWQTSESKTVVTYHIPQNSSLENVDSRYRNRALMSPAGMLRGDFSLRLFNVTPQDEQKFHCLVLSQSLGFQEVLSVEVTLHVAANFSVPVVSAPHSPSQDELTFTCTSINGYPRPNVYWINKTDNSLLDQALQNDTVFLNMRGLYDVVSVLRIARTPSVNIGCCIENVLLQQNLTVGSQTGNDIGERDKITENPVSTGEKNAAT

RTN4RL1 = target: T2, RTN4RL1 (Homo sapiens (Human), UniProt Q86UN2 25-420)
T2 sequence: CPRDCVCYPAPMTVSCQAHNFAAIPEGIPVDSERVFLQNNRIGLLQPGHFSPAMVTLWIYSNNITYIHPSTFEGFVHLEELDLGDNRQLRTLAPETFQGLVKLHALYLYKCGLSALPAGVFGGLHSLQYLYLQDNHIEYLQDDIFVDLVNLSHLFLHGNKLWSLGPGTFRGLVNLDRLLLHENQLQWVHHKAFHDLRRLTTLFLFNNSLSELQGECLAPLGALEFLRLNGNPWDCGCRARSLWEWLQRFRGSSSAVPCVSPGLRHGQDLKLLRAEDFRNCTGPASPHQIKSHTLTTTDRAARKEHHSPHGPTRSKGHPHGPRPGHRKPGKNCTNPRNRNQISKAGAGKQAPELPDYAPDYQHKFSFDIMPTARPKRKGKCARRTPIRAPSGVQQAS

TLR9 = target: T3, TLR9 (Homo sapiens (Human), UniProt Q9NR96 26-818)
T3 sequence: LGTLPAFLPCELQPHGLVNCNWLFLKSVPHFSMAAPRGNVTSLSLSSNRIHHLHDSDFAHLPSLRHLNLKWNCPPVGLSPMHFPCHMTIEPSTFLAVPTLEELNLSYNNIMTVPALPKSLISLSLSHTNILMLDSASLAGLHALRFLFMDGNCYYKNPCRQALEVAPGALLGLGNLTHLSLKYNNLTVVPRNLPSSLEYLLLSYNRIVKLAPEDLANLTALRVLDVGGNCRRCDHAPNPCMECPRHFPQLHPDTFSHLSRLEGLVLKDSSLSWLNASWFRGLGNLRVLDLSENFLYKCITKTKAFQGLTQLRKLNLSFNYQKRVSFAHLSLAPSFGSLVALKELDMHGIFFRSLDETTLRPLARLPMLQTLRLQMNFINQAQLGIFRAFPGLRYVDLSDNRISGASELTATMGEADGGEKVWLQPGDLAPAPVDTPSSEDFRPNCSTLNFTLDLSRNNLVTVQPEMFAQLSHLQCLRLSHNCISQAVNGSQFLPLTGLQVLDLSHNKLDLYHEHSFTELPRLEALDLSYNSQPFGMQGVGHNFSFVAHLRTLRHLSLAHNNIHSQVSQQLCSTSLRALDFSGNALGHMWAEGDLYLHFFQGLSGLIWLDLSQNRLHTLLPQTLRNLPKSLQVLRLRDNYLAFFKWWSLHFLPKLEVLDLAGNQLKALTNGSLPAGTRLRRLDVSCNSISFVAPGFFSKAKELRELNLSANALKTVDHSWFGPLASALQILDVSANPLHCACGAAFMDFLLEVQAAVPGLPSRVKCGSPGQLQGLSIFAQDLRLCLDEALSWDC

FZD10 = target: T4, FZD10 (Homo sapiens (Human), UniProt Q9ULW2 21-225)
T4 sequence: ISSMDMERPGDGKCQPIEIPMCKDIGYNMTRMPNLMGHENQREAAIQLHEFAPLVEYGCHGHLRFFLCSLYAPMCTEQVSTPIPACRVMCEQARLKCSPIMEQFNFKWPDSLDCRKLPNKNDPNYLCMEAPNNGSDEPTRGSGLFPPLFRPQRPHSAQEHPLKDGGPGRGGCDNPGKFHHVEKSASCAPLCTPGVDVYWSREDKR

CDCP1 = CDCP1 (Homo sapiens (Human), UniProt Q9H5V8 30-667)
Chain of CDCP1 (Q9H5V8 30-667 limits assumed): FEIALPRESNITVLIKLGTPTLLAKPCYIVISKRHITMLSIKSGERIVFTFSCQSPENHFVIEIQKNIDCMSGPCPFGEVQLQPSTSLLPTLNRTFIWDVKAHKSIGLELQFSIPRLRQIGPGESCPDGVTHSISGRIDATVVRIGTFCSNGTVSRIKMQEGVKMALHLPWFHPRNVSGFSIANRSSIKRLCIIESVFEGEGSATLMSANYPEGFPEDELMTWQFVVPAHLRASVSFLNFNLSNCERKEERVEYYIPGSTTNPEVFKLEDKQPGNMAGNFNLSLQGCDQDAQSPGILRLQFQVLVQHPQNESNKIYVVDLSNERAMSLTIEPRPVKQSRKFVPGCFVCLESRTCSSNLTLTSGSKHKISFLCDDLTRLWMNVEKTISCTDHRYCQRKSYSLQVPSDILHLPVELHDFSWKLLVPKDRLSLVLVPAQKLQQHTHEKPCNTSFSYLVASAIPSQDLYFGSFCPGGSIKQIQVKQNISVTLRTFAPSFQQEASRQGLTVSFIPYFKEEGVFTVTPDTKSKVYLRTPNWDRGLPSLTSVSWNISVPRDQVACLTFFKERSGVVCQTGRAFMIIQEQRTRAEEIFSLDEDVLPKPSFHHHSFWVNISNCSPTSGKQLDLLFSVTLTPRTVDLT

DKK3 = DKK3 (Homo sapiens (Human), UniProt Q9UBP4 22-350)
Chain of DKK3 (Q9UBP4 22-350 limits assumed): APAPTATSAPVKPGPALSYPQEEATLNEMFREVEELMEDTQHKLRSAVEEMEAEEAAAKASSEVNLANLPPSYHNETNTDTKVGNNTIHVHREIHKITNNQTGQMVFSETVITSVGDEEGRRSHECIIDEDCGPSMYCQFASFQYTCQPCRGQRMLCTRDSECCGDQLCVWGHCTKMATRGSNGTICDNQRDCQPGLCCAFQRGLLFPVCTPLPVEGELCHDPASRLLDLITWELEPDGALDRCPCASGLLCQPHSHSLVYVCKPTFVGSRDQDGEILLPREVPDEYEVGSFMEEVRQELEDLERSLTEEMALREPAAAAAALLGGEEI

OGN = target: T5, OGN (Homo sapiens (Human), UniProt P20774 21-298)
T5 sequence: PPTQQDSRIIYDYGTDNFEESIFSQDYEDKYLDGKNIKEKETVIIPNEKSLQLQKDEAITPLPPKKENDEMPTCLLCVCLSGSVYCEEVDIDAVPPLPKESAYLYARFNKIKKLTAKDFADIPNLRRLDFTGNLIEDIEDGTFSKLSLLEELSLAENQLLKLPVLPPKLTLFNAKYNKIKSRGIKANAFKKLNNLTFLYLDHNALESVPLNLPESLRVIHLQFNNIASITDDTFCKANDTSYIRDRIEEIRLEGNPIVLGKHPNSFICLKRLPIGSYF

EPYC = target: T6, EPYC (Homo sapiens (Human), UniProt Q99645 20-322)
T6 sequence: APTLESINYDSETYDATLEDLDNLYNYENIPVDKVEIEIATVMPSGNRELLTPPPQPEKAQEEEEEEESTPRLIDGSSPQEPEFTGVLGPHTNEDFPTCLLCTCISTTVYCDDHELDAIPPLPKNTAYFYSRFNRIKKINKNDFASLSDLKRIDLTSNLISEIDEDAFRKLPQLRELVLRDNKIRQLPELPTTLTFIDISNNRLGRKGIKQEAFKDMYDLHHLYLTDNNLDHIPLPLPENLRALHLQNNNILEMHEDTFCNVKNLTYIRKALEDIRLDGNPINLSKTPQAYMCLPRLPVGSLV

AGR2 = target: T7, AGR2 (Homo sapiens (Human), UniProt O95994 21-175)
T7 sequence: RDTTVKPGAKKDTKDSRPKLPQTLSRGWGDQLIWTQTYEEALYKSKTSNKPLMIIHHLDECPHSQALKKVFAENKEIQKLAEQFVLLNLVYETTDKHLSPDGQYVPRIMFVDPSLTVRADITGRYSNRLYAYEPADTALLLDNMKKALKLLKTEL

PLXDC2 = PLXDC2 (Homo sapiens (Human), UniProt Q6UX71 31-454)
Chain of PLXDC2 (Q6UX71 31-454 limits assumed): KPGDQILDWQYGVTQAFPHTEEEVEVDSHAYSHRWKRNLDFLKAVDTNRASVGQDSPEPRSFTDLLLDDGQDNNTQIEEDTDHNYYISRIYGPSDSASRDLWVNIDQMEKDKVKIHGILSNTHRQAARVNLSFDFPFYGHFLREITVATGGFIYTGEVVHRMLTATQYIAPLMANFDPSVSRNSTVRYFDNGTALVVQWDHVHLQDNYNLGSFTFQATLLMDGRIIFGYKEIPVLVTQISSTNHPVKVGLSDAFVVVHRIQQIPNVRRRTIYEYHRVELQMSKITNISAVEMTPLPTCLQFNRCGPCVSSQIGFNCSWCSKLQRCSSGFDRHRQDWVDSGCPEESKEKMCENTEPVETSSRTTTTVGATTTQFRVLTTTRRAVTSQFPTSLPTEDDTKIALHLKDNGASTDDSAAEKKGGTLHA

Measured: binding result

B1: PD1-41C9 (antibody, V domains shown)
VH: QMQLVESGGGVVQPGRSLRLSCAASGFTFSSYAMHWVRQAPGKGLEWVAVISYDGSNKYYADSVKGRFTISRDNSKNTLYLQMNRLRSEDTAVYYCTTTTFDSWGQGTLITVSS
VL: DIVMTQTPLSLPVTPGEAASISCRSSQSLLDSEDGNTYLDWYLQKPGQSPQLLIYTLSHRASGVPDRFSGSGSGTDFTLKISRVAAEDVGLYYCLQRMGFPYTFGQGTKLDIK
notes: scFv-phage in the screening ELISA; whole IgG in the other assays
no binding (tested: 1 ug/ml): ICOSLG | RTN4RL1 | TLR9 | FZD10 | CDCP1 | DKK3 | OGN | EPYC | AGR2 | PLXDC2

B2: PD1-49A2 (antibody, V domains shown)
VH: QVQLVESGGGVVQPGRSLRLSCAASGFTFSSYAMHWVRQAPGKGLEWVAVISYDGSNKYYADSVKGRFTISRDNPKNTLYLQMNSLRAEDTAVYYCTTTTFDSWGRGTLVTVSS
VL: DIVMTQSPLSLPVTPGEPASISCRSSQSLFDSDDGNTYLDWYLQKPGQSPQLLIYTLSHRASGVPDRFSGSGSGTDFTLKISRVEAEDVGIYYCLQRMGFPYTFGQGTKVEIK
notes: scFv-phage in the screening ELISA; whole IgG in the other assays; also called Parent 49A2
no binding (tested: 1 ug/ml): ICOSLG | RTN4RL1 | TLR9 | FZD10 | CDCP1 | DKK3 | OGN | EPYC | AGR2 | PLXDC2

B3: PD1-45D6 (antibody, V domains shown)
VH: QVQLVESGGGVVQPGRSLRLSCAASGFTFSSYAMHWVRQVPGKGLEWVAVISYDGNDKYYADSVKGRFTISRDNSKNTLYLQMNSLRAEDTAVYYCVPTTFEYWGQGSQVTVSS
VL: DIVMTQTPLSLPVTPGEAASISCRSSQSLLDSDDGKTYLDWYLQKPGQSPQLLIYTLSYRASGVPDRFSGSGSGTEFNLRISRVEAEDVGIYYCMQRVEFPFTFGQGTKLDIK
notes: as for B1
no binding (tested: 1 ug/ml): ICOSLG | RTN4RL1 | TLR9 | FZD10 | CDCP1 | DKK3 | OGN | EPYC | AGR2 | PLXDC2
